In one data set the target is THRa:RXRa (Homo sapiens, UniProt P10827;P19793 full;full). Briefly: no ligand; PBM; 90 nM : 90 nM RXRa; PBS pH 7.4, 2% milk, 0.02% Triton X-100, 1 mM DTT, BSA, 0.4 mg/ml salmon testes DNA. The following applies: tags: His kept;His cleaved; copies: 1;1; label: surface-attached array probe.
The target in another data set is PPARg:RXRa (Homo sapiens, UniProt P37231;P19793 full;full). Briefly: no ligand; PBM; 180 nM : 90 nM RXRa; PBS pH 7.4, 2% milk, 0.02% Triton X-100, 1 mM DTT, BSA, 0.4 mg/ml salmon testes DNA. Particulars: tags: His kept;His cleaved; copies: 1;1; label: surface-attached array probe.
Another data set has as its target PPARa:RXRa (Homo sapiens, UniProt Q07869;P19793 full;full). Nature of the data set: no ligand; PBM; 270 nM : 90 nM RXRa; PBS pH 7.4, 2% milk, 0.02% Triton X-100, 1 mM DTT, BSA, 0.4 mg/ml salmon testes DNA. The following applies: tags: GST kept;His cleaved; copies: 1;1; label: surface-attached array probe. The essentials:
(§1)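 Ligand-free nuclear receptor dimers were applied to custom Agilent 4×180K protein-binding microarrays whose double-stranded probes carried direct-repeat seeds, single-nucleotide variants, half-site ablations and random human genomic background sequences in 34-nt variable regions. Incubation lasted 1 h. Binding z-scores were computed against the random background probes from regression-normalized fluorescence.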

Another data set concerns the target FXR:RXRa (Homo sapiens, UniProt Q96RI1;P19793 full;full). Described as above. Particulars: tags: His kept;His cleaved; copies: 1;1; label: surface-attached array probe. The essentials:
as §1

The target in another data set is PXR:RXRa (Homo sapiens, UniProt O75469;P19793 full;full). Described as above. Particulars: tags: His kept;His cleaved; copies: 1;1; label: surface-attached array probe. Put shortly: as §1
In another data set the target is RARa:RXRa (Homo sapiens, UniProt P10276;P19793 full;full). The data set is described as above. The following applies: tags: His kept;His cleaved; copies: 1;1; label: surface-attached array probe. The essentials:
as §1

A further data set addresses LXRb:RXRa (Homo sapiens, UniProt P55055;P19793 full;full). The data set is described as above. Particulars: tags: His kept;His cleaved; copies: 1;1; label: surface-attached array probe. The essentials:
as §1

The next data set deals with VDR:RXRa (Homo sapiens, UniProt P11473;P19793 full;full). The data set is described as above. Particulars: tags: His kept;His cleaved; copies: 1;1; label: surface-attached array probe. The essentials:
as §1

In a further data set the target is RXRa (Homo sapiens, UniProt P19793). Nature of the data set: no ligand; PBM; 180 nM; PBS pH 7.4, 2% milk, 0.02% Triton X-100, 1 mM DTT, BSA, 0.4 mg/ml salmon testes DNA. The following applies: tags: His cleaved; chain copies: 2; label: surface-attached array probe.
The next data set has as its target RARg:RXRa (Homo sapiens, UniProt P13631;P19793 full;full). Nature of the data set: no ligand; PBM; 270 nM : 90 nM RXRa; PBS pH 7.4, 2% milk, 0.02% Triton X-100, 1 mM DTT, BSA, 0.4 mg/ml salmon testes DNA. Particulars: tags: His kept;His cleaved; copies: 1;1; label: surface-attached array probe. Put shortly:
as §1

A further data set deals with LXRa:RXRa (Homo sapiens, UniProt Q13133;P19793 full;full). The description is as above. The following applies: tags: His kept;His cleaved; copies: 1;1; label: surface-attached array probe. The essentials: as §1
For a further data set, the target named is RARb:RXRa (Homo sapiens, UniProt P10826;P19793 full;full). The description is as above. Particulars: tags: His kept;His cleaved; copies: 1;1; label: surface-attached array probe. The essentials:
as §1

PXR:RXRa, sequence (O75469 whole entry, chain 1 of 2): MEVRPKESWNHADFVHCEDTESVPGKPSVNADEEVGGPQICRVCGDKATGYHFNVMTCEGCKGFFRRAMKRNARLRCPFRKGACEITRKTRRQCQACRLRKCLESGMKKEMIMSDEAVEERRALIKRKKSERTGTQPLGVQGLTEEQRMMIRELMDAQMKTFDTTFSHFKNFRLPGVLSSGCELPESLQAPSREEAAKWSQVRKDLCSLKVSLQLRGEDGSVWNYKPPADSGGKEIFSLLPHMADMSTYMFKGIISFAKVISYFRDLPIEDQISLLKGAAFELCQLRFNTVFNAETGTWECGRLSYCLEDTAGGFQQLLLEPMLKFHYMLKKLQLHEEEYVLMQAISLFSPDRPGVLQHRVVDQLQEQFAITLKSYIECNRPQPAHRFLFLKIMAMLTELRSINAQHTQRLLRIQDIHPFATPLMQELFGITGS
PXR:RXRa, sequence (P19793 whole entry, chain 2 of 2): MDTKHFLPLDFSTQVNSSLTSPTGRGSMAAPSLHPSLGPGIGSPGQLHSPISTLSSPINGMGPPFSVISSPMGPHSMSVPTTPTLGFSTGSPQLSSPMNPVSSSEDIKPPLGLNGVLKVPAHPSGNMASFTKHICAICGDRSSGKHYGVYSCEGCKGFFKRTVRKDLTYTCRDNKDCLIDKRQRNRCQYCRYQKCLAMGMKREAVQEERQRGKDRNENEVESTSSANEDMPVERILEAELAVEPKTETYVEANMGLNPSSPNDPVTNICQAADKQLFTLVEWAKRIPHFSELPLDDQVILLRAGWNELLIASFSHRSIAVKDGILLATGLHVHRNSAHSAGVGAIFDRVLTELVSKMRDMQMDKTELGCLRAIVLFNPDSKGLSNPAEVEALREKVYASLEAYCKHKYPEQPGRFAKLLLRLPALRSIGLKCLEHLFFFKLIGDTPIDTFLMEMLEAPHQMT
PPARg:RXRa, sequence (P37231 29-505, chain 1 of 2): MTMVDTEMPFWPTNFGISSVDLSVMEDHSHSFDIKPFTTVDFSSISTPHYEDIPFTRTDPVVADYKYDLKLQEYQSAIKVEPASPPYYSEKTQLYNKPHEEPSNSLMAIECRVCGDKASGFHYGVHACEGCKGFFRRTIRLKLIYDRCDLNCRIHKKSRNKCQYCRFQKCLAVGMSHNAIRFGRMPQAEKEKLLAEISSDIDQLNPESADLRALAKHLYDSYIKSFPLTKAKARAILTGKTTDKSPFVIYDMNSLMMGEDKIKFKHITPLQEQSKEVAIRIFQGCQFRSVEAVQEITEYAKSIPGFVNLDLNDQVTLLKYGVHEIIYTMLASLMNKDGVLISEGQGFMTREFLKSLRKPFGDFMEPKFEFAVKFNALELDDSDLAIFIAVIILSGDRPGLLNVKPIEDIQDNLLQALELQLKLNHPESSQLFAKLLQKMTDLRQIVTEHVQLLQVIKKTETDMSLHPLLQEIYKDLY
PPARg:RXRa, sequence (P19793 whole entry, chain 2 of 2): as the sequence (P19793 whole entry, chain 2 of 2) above
RARa:RXRa, sequence (P10276 whole entry, chain 1 of 2): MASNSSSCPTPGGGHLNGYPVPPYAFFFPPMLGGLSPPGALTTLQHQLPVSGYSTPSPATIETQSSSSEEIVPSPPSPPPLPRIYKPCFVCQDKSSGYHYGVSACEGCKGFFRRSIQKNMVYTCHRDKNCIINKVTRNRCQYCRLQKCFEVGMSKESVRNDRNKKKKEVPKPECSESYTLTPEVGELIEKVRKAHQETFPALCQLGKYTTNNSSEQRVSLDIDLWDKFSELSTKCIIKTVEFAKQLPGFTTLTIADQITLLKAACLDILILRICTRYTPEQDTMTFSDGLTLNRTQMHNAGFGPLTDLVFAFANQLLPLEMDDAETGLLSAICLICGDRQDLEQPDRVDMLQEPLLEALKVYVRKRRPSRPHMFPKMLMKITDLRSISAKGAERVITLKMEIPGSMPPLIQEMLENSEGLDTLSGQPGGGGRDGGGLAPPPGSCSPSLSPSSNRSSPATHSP
RARa:RXRa, sequence (P19793 whole entry, chain 2 of 2): as the sequence (P19793 whole entry, chain 2 of 2) above
THRa:RXRa, sequence (P10827 other isoform, or with tags, fused parts or gaps, chain 1 of 2): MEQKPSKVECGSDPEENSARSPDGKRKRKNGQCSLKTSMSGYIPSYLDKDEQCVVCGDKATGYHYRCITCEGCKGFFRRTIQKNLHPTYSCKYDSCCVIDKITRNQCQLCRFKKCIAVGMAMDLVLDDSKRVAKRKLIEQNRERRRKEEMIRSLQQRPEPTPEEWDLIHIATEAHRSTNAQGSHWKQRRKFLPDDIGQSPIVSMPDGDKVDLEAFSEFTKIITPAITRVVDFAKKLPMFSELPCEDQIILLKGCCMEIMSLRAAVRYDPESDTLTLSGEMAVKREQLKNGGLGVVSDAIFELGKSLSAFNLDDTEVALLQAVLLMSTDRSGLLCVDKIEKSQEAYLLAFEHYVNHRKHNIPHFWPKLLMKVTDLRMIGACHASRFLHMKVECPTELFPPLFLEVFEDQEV
THRa:RXRa, sequence (P19793 whole entry, chain 2 of 2): as the sequence (P19793 whole entry, chain 2 of 2) above
LXRb:RXRa, sequence (P55055 whole entry, chain 1 of 2): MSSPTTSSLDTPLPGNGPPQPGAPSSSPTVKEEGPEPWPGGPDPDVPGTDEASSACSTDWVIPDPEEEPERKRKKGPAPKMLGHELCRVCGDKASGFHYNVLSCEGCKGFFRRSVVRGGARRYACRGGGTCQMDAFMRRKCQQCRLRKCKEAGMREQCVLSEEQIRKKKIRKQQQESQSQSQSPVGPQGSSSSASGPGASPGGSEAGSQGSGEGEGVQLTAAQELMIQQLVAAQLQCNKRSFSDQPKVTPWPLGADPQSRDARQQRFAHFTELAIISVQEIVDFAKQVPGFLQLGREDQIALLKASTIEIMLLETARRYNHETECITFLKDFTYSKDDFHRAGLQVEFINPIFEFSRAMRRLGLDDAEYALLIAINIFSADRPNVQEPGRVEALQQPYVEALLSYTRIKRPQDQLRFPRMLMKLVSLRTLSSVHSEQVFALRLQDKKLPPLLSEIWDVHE
LXRb:RXRa, sequence (P19793 whole entry, chain 2 of 2): as the sequence (P19793 whole entry, chain 2 of 2) above

B1: NRC3_random_hg19_402_o1 (dsDNA)
DNA 1: GCTGAGGTGCTTCAGAGATGTCCACTCCTGCTGGCTGCGATTGACAGCGTAGAATGAAGG
DNA 2: CCTTCATTCTACGCTGTCAATCGCAGCCAGCAGGAGTGGACATCTCTGAAGCACCTCAGC
Regarding B1, the binding signal in the data set with THRa:RXRa is -0.6 PBM z-score against 500 random probes; with PPARg:RXRa it was -0.45 PBM z-score against 500 random probes; with PPARa:RXRa it was -0.4 PBM z-score against 500 random probes; with FXR:RXRa, -0.38 PBM z-score against 500 random probes; with PXR:RXRa, -0.8 PBM z-score against 500 random probes.

B2: NRC3_random_hg19_372_o1 (dsDNA)
DNA 1: GCGAGGTTGCAGTGAGCCAAGATTGCACCACTGCACGCGATTGACAGCGTAGAATGAAGG
DNA 2: CCTTCATTCTACGCTGTCAATCGCGTGCAGTGGTGCAATCTTGGCTCACTGCAACCTCGC
For B2, the results for the binding signal in the data set with THRa:RXRa and with PPARg:RXRa were -0.05 PBM z-score against 500 random probes and -0.12 PBM z-score against 500 random probes, respectively.

B3: NRC3_wobSeed85_DR3_A16T_o1 (dsDNA)
DNA 1: GCCGTCCAAGGTCAGTGAGGTCAGTGAATGCCGAGTGCGATTGACAGCGTAGAATGAAGG
DNA 2: CCTTCATTCTACGCTGTCAATCGCACTCGGCATTCACTGACCTCACTGACCTTGGACGGC
B3: the binding signal in the data set with THRa:RXRa is 4.89 PBM z-score against 500 random probes; with RARa:RXRa, 4.46 PBM z-score against 500 random probes.

B4: NRC3_random_hg19_47_o1 (dsDNA)
DNA 1: GCGCCTTCAGGAACATGCTATTCTGTCTATGGAGTCGCGATTGACAGCGTAGAATGAAGG
DNA 2: CCTTCATTCTACGCTGTCAATCGCGACTCCATAGACAGAATAGCATGTTCCTGAAGGCGC
Take B4: the binding signal was -0.54 PBM z-score against 500 random probes in the data set with THRa:RXRa and 0.27 PBM z-score against 500 random probes with PPARg:RXRa.

B5: NRC3_random_hg19_192_o1 (dsDNA)
DNA 1: GCGCAGGAAGCCCTCCTCCAGCTTACAGTGGAACTCGCGATTGACAGCGTAGAATGAAGG
DNA 2: CCTTCATTCTACGCTGTCAATCGCGAGTTCCACTGTAAGCTGGAGGAGGGCTTCCTGCGC
Regarding B5, the binding signal with THRa:RXRa was -0.77 PBM z-score against 500 random probes; in the data set with LXRb:RXRa, -1.14 PBM z-score against 500 random probes; with RARa:RXRa, -1.09 PBM z-score against 500 random probes.

B6: NRC3_random_hg19_119_o1 (dsDNA)
DNA 1: GCCCTACCCTCCTCCCTGTCACTCGCCAGTCCCAGCGCGATTGACAGCGTAGAATGAAGG
DNA 2: CCTTCATTCTACGCTGTCAATCGCGCTGGGACTGGCGAGTGACAGGGAGGAGGGTAGGGC
In the case of B6, the binding signal was -0.04 PBM z-score against 500 random probes with THRa:RXRa, -0.75 PBM z-score against 500 random probes in the data set with PPARg:RXRa and 0.49 PBM z-score against 500 random probes in the data set with VDR:RXRa.

B7: NRC3_random_hg19_80_o1 (dsDNA)
DNA 1: GCCAATACAGCTTTGGCTTCTGCAGAATCTGAGGAAGCGATTGACAGCGTAGAATGAAGG
DNA 2: CCTTCATTCTACGCTGTCAATCGCTTCCTCAGATTCTGCAGAAGCCAAAGCTGTATTGGC
As to B7, the values for the binding signal with RXRa, with THRa:RXRa and in the data set with PPARg:RXRa were -0.53 PBM z-score against 500 random probes, -1.02 PBM z-score against 500 random probes and -0.24 PBM z-score against 500 random probes, respectively.

B8: NRC3_wobSeed73_DR3_A18G_o1 (dsDNA)
DNA 1: GCCAAACTAGGTCACAGGGGTCAAAGTCCGTGCGTAGCGATTGACAGCGTAGAATGAAGG
DNA 2: CCTTCATTCTACGCTGTCAATCGCTACGCACGGACTTTGACCCCTGTGACCTAGTTTGGC
For the molecule B8, the binding signal with THRa:RXRa is 5.07 PBM z-score against 500 random probes; with PPARg:RXRa, 10.8 PBM z-score against 500 random probes; in the data set with PPARa:RXRa, 7.23 PBM z-score against 500 random probes; with RARg:RXRa, 7.8 PBM z-score against 500 random probes.

B9: NRC3_random_hg19_266_o1 (dsDNA)
DNA 1: GCAATGACAAGGAAGTGTGGAGGCAGAAAGTGCCAAGCGATTGACAGCGTAGAATGAAGG
DNA 2: CCTTCATTCTACGCTGTCAATCGCTTGGCACTTTCTGCCTCCACACTTCCTTGTCATTGC
As to B9, the binding signal was -0.07 PBM z-score against 500 random probes with THRa:RXRa, -0.28 PBM z-score against 500 random probes in the data set with LXRb:RXRa and -0.53 PBM z-score against 500 random probes in the data set with RARa:RXRa.

B10: NRC3_random_hg19_379_o1 (dsDNA)
DNA 1: GCAGGCTGGCAGATGGTTCAACAGGTGAGTAAAGCAGCGATTGACAGCGTAGAATGAAGG
DNA 2: CCTTCATTCTACGCTGTCAATCGCTGCTTTACTCACCTGTTGAACCATCTGCCAGCCTGC
For the molecule B10, the binding signal in the data set with THRa:RXRa was -0.17 PBM z-score against 500 random probes; with PPARg:RXRa, -0.07 PBM z-score against 500 random probes; with LXRa:RXRa it was -0.53 PBM z-score against 500 random probes.

B11: NRC3_random_hg19_233_o1 (dsDNA)
DNA 1: GCTACAAAGTACTGGGATCCTCCCAACAGCCTGCAAGCGATTGACAGCGTAGAATGAAGG
DNA 2: CCTTCATTCTACGCTGTCAATCGCTTGCAGGCTGTTGGGAGGATCCCAGTACTTTGTAGC
On to B11, for which the binding signal in the data set with THRa:RXRa was -0.3 PBM z-score against 500 random probes; in the data set with PPARg:RXRa, 0.13 PBM z-score against 500 random probes; with PXR:RXRa it was -0.22 PBM z-score against 500 random probes.

B12: NRC3_random_hg19_138_o1 (dsDNA)
DNA 1: GCTAGGTTCTCAGAGTAAGAAGTCCATGTTGGTTAGGCGATTGACAGCGTAGAATGAAGG
DNA 2: CCTTCATTCTACGCTGTCAATCGCCTAACCAACATGGACTTCTTACTCTGAGAACCTAGC
B12: the binding signal with THRa:RXRa was 0.16 PBM z-score against 500 random probes; in the data set with LXRb:RXRa it was 0.28 PBM z-score against 500 random probes; with FXR:RXRa, 0.34 PBM z-score against 500 random probes; in the data set with RARa:RXRa, -0.25 PBM z-score against 500 random probes.

B13: NRC3_wobSeed111_DR4_T8G_o1 (dsDNA)
DNA 1: GCCGAACGAGGTCAGAACAGGACAGTGAAGGATGATGCGATTGACAGCGTAGAATGAAGG
DNA 2: CCTTCATTCTACGCTGTCAATCGCATCATCCTTCACTGTCCTGTTCTGACCTCGTTCGGC
In the case of B13, the results for the binding signal with THRa:RXRa and in the data set with RARa:RXRa were 4.78 PBM z-score against 500 random probes and 3.37 PBM z-score against 500 random probes, respectively.

B14: NRC3_random_hg19_91_o1 (dsDNA)
DNA 1: GCGACTCAGACACTGCTGGCACCCGACACTGCTCTCGCGATTGACAGCGTAGAATGAAGG
DNA 2: CCTTCATTCTACGCTGTCAATCGCGAGAGCAGTGTCGGGTGCCAGCAGTGTCTGAGTCGC
Regarding B14, the binding signal was -0.34 PBM z-score against 500 random probes in the data set with THRa:RXRa and -0.13 PBM z-score against 500 random probes with RARa:RXRa.

B15: NRC3_wobSeed133_DR5_G26C_o1 (dsDNA)
DNA 1: GCCGTCCAAGGTCAATGCTAGGTCACTGAAAGCATTGCGATTGACAGCGTAGAATGAAGG
DNA 2: CCTTCATTCTACGCTGTCAATCGCAATGCTTTCAGTGACCTAGCATTGACCTTGGACGGC
In the case of B15, the binding signal was 4.78 PBM z-score against 500 random probes in the data set with THRa:RXRa and 7.16 PBM z-score against 500 random probes with RARa:RXRa.

B16: NRC3_wobSeed133_DR5_C18T_o1 (dsDNA)
DNA 1: GCCGTCCAAGGTCAATGTTAGGTCAGTGAAAGCATTGCGATTGACAGCGTAGAATGAAGG
DNA 2: CCTTCATTCTACGCTGTCAATCGCAATGCTTTCACTGACCTAACATTGACCTTGGACGGC
With B16, the binding signal with THRa:RXRa was 5.15 PBM z-score against 500 random probes; with PPARg:RXRa it was 4 PBM z-score against 500 random probes; in the data set with RARb:RXRa it was 5.45 PBM z-score against 500 random probes.

B17: NRC3_random_hg19_227_o1 (dsDNA)
DNA 1: GCGAAGGAAGGAAGGAAGGAAGGAAGGAAGGAAGGCGCGATTGACAGCGTAGAATGAAGG
DNA 2: CCTTCATTCTACGCTGTCAATCGCGCCTTCCTTCCTTCCTTCCTTCCTTCCTTCCTTCGC
Regarding B17, the binding signal with RXRa is -1.01 PBM z-score against 500 random probes; with THRa:RXRa, -0.49 PBM z-score against 500 random probes; with PPARg:RXRa it was -0.31 PBM z-score against 500 random probes; with PXR:RXRa, -0.88 PBM z-score against 500 random probes.

B18: NRC3_random_hg19_156_o1 (dsDNA)
DNA 1: GCGCCACCAGGCCTGCCTTACAAGAGCTCCTGAAGAGCGATTGACAGCGTAGAATGAAGG
DNA 2: CCTTCATTCTACGCTGTCAATCGCTCTTCAGGAGCTCTTGTAAGGCAGGCCTGGTGGCGC
Consider B18, for which the binding signal is -0.26 PBM z-score against 500 random probes with THRa:RXRa and -0.57 PBM z-score against 500 random probes in the data set with RARa:RXRa.
